From patent US9193790B2, “Use of antagonists of the interaction between HIV GP120 and A4B7 integrin” (priority 2006, dated 2015)
Entries after “also recorded” stand apart in the source; their conditions may differ. Ends that are not written are not given here.

Tests used:
[1] = target: T1, α4β7 integrin on CD8+ T-cells (Homo sapiens, UniProt P13612+P26010); test: Flow cytometry: gp120 binding to RA-cultured CD8+ T-cells; settings: peptide at 0.19 μM-12.5 μM (FIG. 8a)
T1 construct: Purified CD4+ T cells and NK cells were obtained by negative selection using magnetic beads; On NKs β7 integrin pairs with α4 integrin (CD49d); endogenous in cells; host or cells: freshly isolated NK cells; OKT3/IL2/retinoic acid-cultured PBMCs (CD8-depleted, i.e. CD4+ T cells) and CD8+ T cells from healthy donors
T1 sequence (P13612 34-1032): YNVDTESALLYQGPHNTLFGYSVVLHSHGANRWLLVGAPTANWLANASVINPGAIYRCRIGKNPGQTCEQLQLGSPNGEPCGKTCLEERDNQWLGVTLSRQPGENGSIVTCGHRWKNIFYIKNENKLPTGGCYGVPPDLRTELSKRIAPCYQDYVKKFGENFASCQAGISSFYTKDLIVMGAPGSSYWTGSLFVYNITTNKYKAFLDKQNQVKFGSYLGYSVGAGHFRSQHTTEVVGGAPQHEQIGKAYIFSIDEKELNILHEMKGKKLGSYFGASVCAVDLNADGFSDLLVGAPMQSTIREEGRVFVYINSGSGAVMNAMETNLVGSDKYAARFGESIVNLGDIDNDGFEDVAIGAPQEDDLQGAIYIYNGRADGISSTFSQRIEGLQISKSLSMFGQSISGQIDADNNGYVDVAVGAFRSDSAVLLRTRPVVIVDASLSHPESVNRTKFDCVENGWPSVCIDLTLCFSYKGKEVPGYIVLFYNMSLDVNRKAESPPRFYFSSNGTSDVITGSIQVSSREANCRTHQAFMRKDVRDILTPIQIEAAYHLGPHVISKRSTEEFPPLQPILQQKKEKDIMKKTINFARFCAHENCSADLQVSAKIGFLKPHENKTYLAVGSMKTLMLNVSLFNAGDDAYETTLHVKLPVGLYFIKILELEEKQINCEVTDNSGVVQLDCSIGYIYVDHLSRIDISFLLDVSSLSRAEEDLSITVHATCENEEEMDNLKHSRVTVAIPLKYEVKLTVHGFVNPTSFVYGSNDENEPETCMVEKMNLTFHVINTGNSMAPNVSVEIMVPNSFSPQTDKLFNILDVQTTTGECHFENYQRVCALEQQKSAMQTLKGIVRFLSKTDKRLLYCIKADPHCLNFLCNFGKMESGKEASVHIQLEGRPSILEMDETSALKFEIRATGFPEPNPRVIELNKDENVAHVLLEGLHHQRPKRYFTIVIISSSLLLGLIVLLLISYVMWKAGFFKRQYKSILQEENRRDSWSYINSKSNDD
T1 sequence (P26010 20-798): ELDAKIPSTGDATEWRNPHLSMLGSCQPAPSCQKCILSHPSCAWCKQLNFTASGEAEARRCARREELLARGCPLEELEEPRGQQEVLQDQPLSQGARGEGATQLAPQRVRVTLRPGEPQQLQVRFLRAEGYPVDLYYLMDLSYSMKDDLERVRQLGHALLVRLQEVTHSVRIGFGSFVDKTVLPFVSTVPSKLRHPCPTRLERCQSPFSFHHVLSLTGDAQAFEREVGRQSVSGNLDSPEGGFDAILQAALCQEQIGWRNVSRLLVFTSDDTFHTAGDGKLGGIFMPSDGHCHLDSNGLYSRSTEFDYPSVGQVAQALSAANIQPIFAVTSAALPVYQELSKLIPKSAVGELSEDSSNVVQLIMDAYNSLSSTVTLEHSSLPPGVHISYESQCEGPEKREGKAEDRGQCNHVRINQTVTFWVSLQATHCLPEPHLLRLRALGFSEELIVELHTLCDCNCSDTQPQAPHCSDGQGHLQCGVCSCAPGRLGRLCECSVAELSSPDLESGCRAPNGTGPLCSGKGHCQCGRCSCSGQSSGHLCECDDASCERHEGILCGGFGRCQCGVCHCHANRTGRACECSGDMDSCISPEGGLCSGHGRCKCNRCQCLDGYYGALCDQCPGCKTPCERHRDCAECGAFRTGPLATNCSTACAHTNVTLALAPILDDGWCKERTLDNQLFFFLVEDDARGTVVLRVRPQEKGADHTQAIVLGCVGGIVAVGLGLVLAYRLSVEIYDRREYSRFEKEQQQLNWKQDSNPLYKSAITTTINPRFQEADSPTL
Experimental: Cells and Reagents. Freshly isolated PBMCs were obtained from healthy donors and separated by Ficoll-Hypaque. Purified CD4+ T cells and NK cells were obtained by negative selection using magnetic beads (StemCell Technologies, Vancouver, BC). Cultured PBMCs were activated with OKT3, IL2 (201 U/ml) and retinoic acid (RA, 10 nM) unless otherwise specified. RA was obtained from Sigma Chemical (St. Louis, Mo.). Recombinant Ig-fusion proteins (MadCAM, VCAM-1, E-cadherin) were purchased from R&D Systems (Minneapolis, Minn.). Integrin antibodies were obtained from Serotech Laboratories Ltd. (Raleigh, N.C.) and Chemicon (Temecula, Calif.), while FITC, PE, APC surface marker antibodies were acquired from Beckton Dickinson (San Diego, Calif.). Cyclic peptides CWLDVC (SEQ ID NO:1) and the scrambled control peptide CDLWC (SEQ ID NO:31) were obtained from NeoMPS (San Diego, Calif.). Recombinant gp120s were produced and purified as described in supplemental methods, using hollow-fiber bioreactors (Fibercell Systems, Frederick, Md.). Integrin cDNA expression vectors were acquired from ORIGENE™ (ORIGENE is a trademark of OriGene Technologies, Inc., Rockville, Md.). […]
Recombinant gp120 protein labeling. […] Biotin incorporation was determined by reacting gp120s with 4′-hydroxyazobenzene-2-carboxylic acid-avidin conjugates (HABA) per the manufacturer's instructions (Pierce Chemical, Rockford, Ill.). […]

[2] = target: T2, α4β7 integrin (Homo sapiens, UniProt P13612+P26010); settings: fibronectin, VCAM, MadCAM (Vanderslice et al. 1997); cited from earlier work
T2 sequence (P13612 34-1032): T1 sequence (P13612 34-1032)
T2 sequence (P26010 20-798): T1 sequence (P26010 20-798)

CWLDVC (also: cyclic, kind of ring not given here)
inhibition of gp120-binding to RA cultured CD8+ T-cells by cyclic peptide [1]: inhibited by CWLDVC in a dose dependent manner | inhibition of binding of natural ligands to α4 / α4β7 integrin [2]: inhibit α4 integrin subunit binding to fibronectin, VCAM and MadCAM; also recorded: inhibit binding of all three natural ligands
